# Laboratory results taken from patent US20200317768A1 (published 2020).
# Residue numbers refer to the chain shown, from its start.
# T1: human FcγRIIb constitutively expressed on MDCK cells (human, UniProt P31994 43-310)
# T1 sequence (looked up): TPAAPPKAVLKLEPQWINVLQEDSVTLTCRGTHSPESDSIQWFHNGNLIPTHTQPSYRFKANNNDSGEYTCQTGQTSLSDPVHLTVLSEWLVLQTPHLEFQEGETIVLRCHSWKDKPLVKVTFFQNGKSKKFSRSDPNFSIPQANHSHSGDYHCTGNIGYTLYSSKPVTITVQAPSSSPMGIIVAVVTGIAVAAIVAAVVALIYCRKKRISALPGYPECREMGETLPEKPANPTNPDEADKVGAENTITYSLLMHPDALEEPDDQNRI
# T2: Cynomolgus monkey latent myostatin (cynomolgus monkey, UniProt Q95J86 25-266; Q95J86 267-375)
# T2 construct: signal 1-24; also called Cyno latent myostatin
# T2 sequence 1: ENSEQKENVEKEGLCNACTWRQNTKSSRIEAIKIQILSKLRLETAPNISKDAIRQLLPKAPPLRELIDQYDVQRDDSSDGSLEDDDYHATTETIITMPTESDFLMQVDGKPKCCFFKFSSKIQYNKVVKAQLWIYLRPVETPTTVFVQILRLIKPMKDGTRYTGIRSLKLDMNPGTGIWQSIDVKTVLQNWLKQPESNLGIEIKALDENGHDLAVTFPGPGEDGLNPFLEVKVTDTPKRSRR
# T2 sequence 2: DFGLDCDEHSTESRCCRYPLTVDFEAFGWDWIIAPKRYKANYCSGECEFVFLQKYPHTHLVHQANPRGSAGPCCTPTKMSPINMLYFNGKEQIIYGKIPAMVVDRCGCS
# T3: Mouse latent myostatin (mouse, UniProt O08689 26-267; O08689 268-376)
# T3 construct: signal 1-24
# T3 sequence 1: T2 sequence 1 with N2G, Q5R, K6E, T19A, K25R, S26Y, K59R, V107A, E140K, N173S
# T3 sequence 2: T2 sequence 2
# T4: Human latent myostatin (human, UniProt O14793 25-266; O14793 267-375)
# T4 construct: Biotinylated in the ELISAs; also called human myostatin latent form
# T4 sequence 1: T2 sequence 1 with A52V
# T4 sequence 2: T2 sequence 2
# T5: GST-hMSTN 61-160aa (human, UniProt O14793 61-160)
# T5 construct: As GST-hMSTN 1-100aa; also called fourth fragment; not shown: GST tag from the pGEX4.1 vector
# T5 sequence: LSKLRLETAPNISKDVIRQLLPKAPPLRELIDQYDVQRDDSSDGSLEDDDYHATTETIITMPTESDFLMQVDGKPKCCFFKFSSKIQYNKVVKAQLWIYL
# T6: GST-hMSTN 81-180aa (human, UniProt A1C2U3 81-180 (Pongo pygmaeus entry))
# T6 construct: As GST-hMSTN 1-100aa; also called fifth fragment; not shown: GST tag from the pGEX4.1 vector
# T6 sequence: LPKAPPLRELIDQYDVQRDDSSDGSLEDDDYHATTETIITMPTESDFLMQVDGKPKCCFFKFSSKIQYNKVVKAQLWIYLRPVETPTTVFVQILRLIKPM
# T7: GST-hMSTN 121-220aa (human, UniProt A1C2U3 121-220 (Pongo pygmaeus entry))
# T7 construct: As GST-hMSTN 1-100aa; also called seventh fragment; not shown: GST tag from the pGEX4.1 vector
# T7 sequence: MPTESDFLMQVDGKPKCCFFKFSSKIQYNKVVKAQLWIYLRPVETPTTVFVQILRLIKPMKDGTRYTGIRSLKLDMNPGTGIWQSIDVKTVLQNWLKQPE
# T8: GST-hMSTN 101-200aa (human, UniProt A1C2U3 101-200 (Pongo pygmaeus entry))
# T8 construct: As GST-hMSTN 1-100aa; also called sixth fragment; not shown: GST tag from the pGEX4.1 vector
# T8 sequence: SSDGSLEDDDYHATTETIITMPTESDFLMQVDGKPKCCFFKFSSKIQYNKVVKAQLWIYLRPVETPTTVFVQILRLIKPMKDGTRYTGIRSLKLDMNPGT
# T9: GST-hMSTN 141-241aa (human, UniProt A1C2U3 141-241 (Pongo pygmaeus entry))
# T9 construct: As GST-hMSTN 1-100aa; also called eighth fragment; not shown: GST tag from the pGEX4.1 vector
# T9 sequence: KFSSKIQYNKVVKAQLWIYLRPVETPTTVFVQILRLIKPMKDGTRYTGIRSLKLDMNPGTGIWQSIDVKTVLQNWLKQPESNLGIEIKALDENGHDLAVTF
# B1: MS103240H795-TT14/M103202L1045-SK1 (antibody, human IgG1, kappa)
# heavy: QVQLVESGGGLVQPGGSLRLSCAVSGIDLSHDDISWVRQAPGKGLEWVSIISYAGSTYYASWAKGRLTISKDTSKNQVVLTMTNMDPVDTATYYCARGVPAYSHGGDLWGQGTLVTVSSASTKGPSVFPLAPSSKSTSGGTAALGCLVKDYFPEPVTVSWNSGALTSGVHTFPAVLQSSGLYSLSSVVTVPSSSLGTQTYICNVNHKPSNTKVDKKVEPKSCDKTHTCPPCPAPEYLGGDSVFLFPPKPKDVLMISRTPEVTCVVIDVSHEDPEVKFNWYVDGVEVHNAKTKPREEQYNSTYRVVSVLPVLHQDWLNGKEYKCKVSNKALPKPIEKTISKAKGQPREPQVYTLPPSREEMTKNQVSLTCLVKGFYPSDIAVEWESNGQPENNYKTTPPVLDSDGSFFLYSKLTVDKSRWQQGNVFSCSVMHEALHNHYTQKSLSLSP
# light: DIVMTQSPATLSLSPGERATLSCTTSQSVYHENWLSWFQQKPGQPPKLLIYWASTLAYGVPSRFSGSGSGTDFTLTISSLQPEDAATYYCAGGYGGGRYAFGQGTKVEIKRTVAAPSVFIFPPSDEQLKSGTASVVCLLNNFYPREAKVQWKVDNALQSGNSQESVTEQDSKDSTYSLSSTLTLSKADYEKHKVYACEVTHQGLSSPVTKSFNRGEC
# B2: MS103240H795-TT33/M103202L1045-SK1 (antibody, human IgG1, kappa)
# heavy: B1 heavy with Q313R, D415K
# light: B1 light
# B3: MS_M103205H714-SG1/M103202L861-SK1 (antibody, human IgG1, kappa, V domains shown)
# VH: QVTLKESGPVLVKPTETLTLTCTVSGIDLSHTDISWVRQAPGKGLEWVGIISYAGSTYYASWAKGRLTISKDTSKNQVVLTMTNMDPVDTATYYCARGVPAYSHGGDLWGQGTLVTVSS
# VL: DIVMTQSPATLSLSPGERATLSCTSSQSVYHNNWLSWFQQKPGQPPKLLIYWASTLAYGVPSRFSGSGSGTDFTLTISSLQPEDAATYYCAGGYGGGRYAFGQGTKVEIKR
# notes: also called MS1032LO01-SG1; MSLO-01
# B4: MST1538 (antibody, human IgG1, kappa, V domains shown)
# VH: QSLEESGGGLVKPGGTLTLTCKASGIDFSSYYYMCWVRQAPGKGLEWIACIYAGISGSTYYASWAKGRFTISKTSSTTVTLQMTSLTAADTATYFCARDPYHFDYGSLWGPGTLVTVSS
# VL: ALVMTQTPASVSAAVGGTVTINCQASQSVYGGNELSWYQQEPGQPPKLLIYSASKLASGVPSRFKGSGSGTQFTLTISGVQCDDAAAYYCAGYRTYSDDDNAFGGGTKVEIKR
# B5: MST1032 (as tested in Example 26) (antibody, V domains shown)
# VH: QSLEESGGRLVTPGGSLTVTCRVSGIDLSSYDISWVRQAPGKGLEWIGIISYAGSTYYASWAKGRFTISKTSTTVDLKMTSLTTEDTATYFCARGVPAYSTGGDLWGPGTLVTVSS
# VL: AQVLTQTASSVSAAVGGTVTINCQSSQSVYDNNWLSWFQQKPGQPPKLLIYWASTLASGVPSRFKGSGSGTQFTLTISDLECDDAATYYCAGGYGGGLYAFGGGTKVEIK
# Tests used:
# [1] = target: T1, human FcγRIIb constitutively expressed …; assay: cell-based or functional assay
# [2] = target: T2, Cynomolgus monkey latent myostatin; assay: SPR (BIACORE T200), 37 C, pH7.4, 1:1 fit; title prints avidity, by the text the affinity condition (capture 18.5 RU)
# Method: (§1) The kinetic parameters of anti-latent myostatin antibodies against human, cynomolgus monkey (cyno), and mouse latent myostatin were assessed at 37° C. at pH7.4 using a BIACORE® T200 instrument (GE Healthcare). ProA/G (Pierce) was immobilized onto all flow cells of a CM4 chip using amine coupling kit (GE Healthcare). Anti-latent myostatin antibody and analytes were prepared in ACES pH7.4 (20 mM ACES, 150 mM NaCl, 1.2 mM CaCl₂), 0.05% TWEEN® 20, 0.005% NaN₃). […] Then human, cyno, or mouse latent myostatin was injected at 3.125 to 50 nM prepared by two-fold serial dilution, followed by dissociation. The sensor surface was regenerated with 25 mM NaOH. Kinetic parameters were determined by processing and fitting the data to a 1:1 binding model using BIACORE® T200 Evaluation software, version 2.0 (GE Healthcare).
# (§2) All experimental settings were the same as in Example 7, except that measurements were also performed in ACES pH5.8 buffer in addition to ACES pH7.4 condition. Some antibodies were only measured against human latent myostatin. Antibody capture level was aimed at 185 RU and 18.5 RU, for avidity and affinity assay, respectively. Kinetic parameters were determined using 1:1 Binding fitting using BIACORE® T200 Evaluation software, version 2.0 (GE Healthcare).
# [3] = target: T3, Mouse latent myostatin; assay: as above
# Method: as §1, §2
# [4] = target: T4, Human latent myostatin; assay: as above
# Method: as §1, §2
# [5] = target: T2, Cynomolgus monkey latent myostatin; assay: SPR (BIACORE T200), 37 C, pH7.4, avidity condition (capture 185 RU), 1:1 fit; pH 7.4
# Method: as §1, §2
# [6] = target: T3, Mouse latent myostatin; assay: as above
# Method: as §1, §2
# [7] = target: T4, Human latent myostatin; assay: as above
# Method: as §1, §2
# [8] = target: T2, Cynomolgus monkey latent myostatin; assay: SPR (BIACORE T200), 37 C, pH5.8, avidity condition (capture 185 RU), 1:1 fit; pH 5.8
# Method: as §1, §2
# [9] = target: T3, Mouse latent myostatin; assay: as above
# Method: as §1, §2
# [10] = target: T4, Human latent myostatin; assay: as above
# Method: as §1, §2
# [11] = target: T5, GST-hMSTN 61-160aa; assay: Western blot on GST tagged fragments
# Description: (§3) Fragments of the N-terminal propeptide coding region of human latent myostatin were cloned into a pGEX4.1 vector so as to produce GST tagged propeptide fragments of 100 amino acid each, with 80 amino acid overlap (FIG. 22A). Protein expression was induced in transformed BL21 competent cells with Overnight Express Autoinduction System (Merck Millipore) and protein was extracted using the BUGBUSTER® protein extraction reagent (Novagen).
# [12] = target: T6, GST-hMSTN 81-180aa; assay: Western blot on GST tagged fragments
# Description: as §3
# [13] = target: T7, GST-hMSTN 121-220aa; assay: Western blot on GST tagged fragments
# Description: as §3
# [14] = target: T8, GST-hMSTN 101-200aa; assay: Western blot on GST tagged fragments
# Description: as §3
# [15] = target: T9, GST-hMSTN 141-241aa; assay: Western blot on GST tagged fragments
# Description: as §3
binder,measurement,setting,value
B1,"cell imaging: fluorescence intensity of labelled human latent myostatin taken up as antigen-antibody complex into MDCK cells expressing human FcγRIIb, relative to SG1",[1],7.5 fold
B2,"cell imaging: uptake of labelled antigen-antibody complex into MDCK cells expressing human FcγRIIb, relative to SG1",[1],36 fold
B3,Kd,[2],0.954 nM
same,koff,[2],0.0011 s⁻¹
same,kon,[2],1.15e+06 M⁻¹ s⁻¹
same,Kd,[3],0.713 nM
same,koff,[3],0.00107 s⁻¹
same,kon,[3],1.5e+06 M⁻¹ s⁻¹
same,Kd,[4],0.788 nM
same,koff,[4],0.00129 s⁻¹
same,kon,[4],1.64e+06 M⁻¹ s⁻¹
same,Kd,[5],0.165 nM
same,koff,[5],0.000197 s⁻¹
same,kon,[5],1.19e+06 M⁻¹ s⁻¹
same,Kd,[6],0.149 nM
same,koff,[6],0.000217 s⁻¹
same,kon,[6],1.45e+06 M⁻¹ s⁻¹
same,Kd,[7],0.17 nM
same,koff,[7],0.000216 s⁻¹
same,kon,[7],1.27e+06 M⁻¹ s⁻¹
same,Kd,[8],8.9 nM
same,koff,[8],0.0068 s⁻¹
same,kon,[8],764000 M⁻¹ s⁻¹
same,Kd,[9],6.15 nM
same,koff,[9],0.00625 s⁻¹
same,kon,[9],1.02e+06 M⁻¹ s⁻¹
same,Kd,[10],19.9 nM
same,koff,[10],0.0242 s⁻¹
same,kon,[10],1.22e+06 M⁻¹ s⁻¹
B4,binding result,[11],no binding
same,binding result,[12],no binding
same,binding result,[13],no binding
same,binding result,[14],no binding
same,binding result,[15],no binding
B5,binding result,[13],no binding
same,binding result,[14],no binding
same,binding result,[15],no binding
